Measured values reported in PMC2785850.

Assays:
LexA-Trx1 fusion protein = LexA-Trx1 fusion protein (UniProt P22217); test: yeast one-hybrid interaction assay
[1] = biological target: histidine-tagged human thioredoxin (human) (UniProt P10599); test: pull-down
Chain of UniProt P10599 (P10599 whole entry): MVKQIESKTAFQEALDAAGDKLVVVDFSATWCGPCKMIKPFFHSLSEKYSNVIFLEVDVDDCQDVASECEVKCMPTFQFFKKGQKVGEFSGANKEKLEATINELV

Chain of UniProt P22217 (P22217 2-103): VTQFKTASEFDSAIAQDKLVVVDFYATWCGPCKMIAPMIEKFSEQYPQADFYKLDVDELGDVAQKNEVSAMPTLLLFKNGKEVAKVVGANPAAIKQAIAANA

## human p53 expressed in yeast from pRS415-p53 (from UniProt P04637 1-393) (natural protein)
LexA-Trx1 fusion protein
  β-gal activity (nmol ONP / min 10^7 cells): 6.56

## purified baculovirus-expressed human p53 (from UniProt P04637 1-393) (natural protein)
[1]
  Kd: 940 nM
